# Data taken from US11813311B2, “Treatment and prevention of metabolic diseases” (Singapore Health Services PTE LTD., priority 2019, dated 2023).
# What was measured:
# Format in all cases: in vivo, mouse
# [1] = system: mice with UUO-induced kidney injury; assay: Weight loss after UUO-induced acute kidney injury; conditions: 20 mg/kg 2×/week from day 4 post-UUO
# Description: In further experiments, mice were subjected to unilateral ureter obstruction (UUO)-induced acute kidney injury. UUO surgeries were carried out on 12-week old mice. Briefly, mice were anesthetized by IP injection of ketamine (100 mg/kg)/xylazine (10 mg/kg) and full depth of anaesthesia was accessed with the pedal reflex. Mice were then shaved on the left side of the abdomen. A vertical incision was made through the skin with a scalpel, a second incision was made through the peritoneum to reveal the kidney. Using forceps, the kidney was brought to the surface and the ureter was tied with surgical silk, twice, below the kidney. The ligated kidney was placed gently back into its correct anatomical position and sterile saline was added to replenish loss of fluid. The incisions were then sutured. Animals were post-operatively treated with antibiotic enrofloxacin (15 mg/kg, SC) and analgesic buprenorphine (0.1 mg/kg, SC) for three consecutive days. Mice were sacrificed 10 days post-ligation. Mice were intraperitoneally injected with 20 mg/kg (2×/week) of anti-IL-11 antibody or identical concentration of IgG isotype control from day 4 post-surgery until the mice were sacrificed.
# [2] = Blood pharmacokinetics and biodistribution of 125I-X209
# Description: C57BL/6J mice (10-12-weeks old) were retro-orbitally injected (left eye) with 100 μl of freshly radiolabeled ^125I-X209 (5 μCi, 2.5 μg) in PBS. Mice were anesthetized with 2% isoflurane and blood were collected at several time points (2, 5, 10, 15, 30 m, 1, 2, 4, 6, 8 h, 1, 2, 3, 7, 14 and 21 days) post injection via submandibular bleeding. For biodistribution studies, blood was collected via cardiac puncture and tissues were harvested at the following time points: 1, 4 h, 1, 3, 7, 14, 21 days post injection. The radioactivity contents were measured using a gamma counter (2480 Wizard2, Perkin Elmer) with decay-corrections (100× dilution of 100 μl dose). The measured radioactivity was normalized to % injected dose/g tissue.
# WDF-fed mice = assay: WDF diet-induced obesity/T2D model (Example 2)
# Description: Mice were injected intraperitoneally with 10 mg/kg of an antagonist anti-IL-11 antibody, an antagonist anti-IL-11Rα antibody, or an identical amount of isotype-matched IgG control antibody. The anti-IL-11 and anti-IL-11Rα antibodies bind to mouse IL-11 and mouse IL-11Rα respectively, and inhibit IL-11 mediated signalling.
# In order to establish metabolic diseases such as obesity and T2D, mice were fed Western diet (D12079B, Research Diets), supplemented with 15% weight/volume fructose in drinking water (WDF) for 16 weeks, from 12 weeks of age.
# Total body fat and lean mass measurements were performed every two weeks by EchoMRI analysis using 4in1 Body Composition Analyzer for Live Small Animals.
# For fasting blood glucose measurements, mice were fasted for 6 hours prior to blood collection (via tail snip), and Accu-Chek blood glucose meter was used to obtain fasting glucose measurements.
# For intraperitoneal glucose tolerance tests, mice were fasted for 6 h prior to being subjected to ipGTT. Basal fasting glucose was measured by tail snip using Accu-Chek blood glucose meter. 2 g/kg lean mass glucose was injected intraperitoneally, and glucose measurements were taken every 15 min for 2 hours. The area under the curve (AUC) was calculated, and plotted as bar graphs.
# For histological analysis, pancreas samples were excised and fixed for 24 hours at RT in 4% neutral-buffered formalin (NBF), and stored in 30% sucrose. 5 μm cryosections were stained with either glucagon or insulin antibodies overnight, and visualized with ImmPRESS HRP IgG polymer detection kit (Vector Laboratories) with ImmPACT DAB Peroxidase Substrate (Vector Laboratories) according to standard protocols, and examined by light microscopy.
Molecule,regain of body weight [1],time to return to normal weight [1],"liver uptake ([2]; 125I-X209, mice)","in vivo half-life ([2]; 125I-X209, retro-orbital injection, mice)",body weight (WDF-fed mice; WDF-fed mice vs IgG control),fasting blood glucose levels (WDF-fed mice; WDF-fed mice vs IgG control),fat mass (WDF-fed mice; WDF-fed mice vs IgG control),glucose tolerance (ipGTT) (WDF-fed mice; WDF-fed mice vs IgG control),lean mass (WDF-fed mice; WDF-fed mice vs IgG control),serum cholesterol levels (WDF-fed mice; WDF-fed mice vs IgG control),serum triglyceride levels (WDF-fed mice; WDF-fed mice vs IgG control),pancreas weight (WDF-fed mice; treated from 8 to 16 weeks or from 16 to 24 weeks),glucagon staining in pancreatic islets (WDF-fed mice; treatment from 16 to 24 weeks),insulin expression in the islets (WDF-fed mice; treatment from 16 to 24 weeks),islet hyperplasia (WDF-fed mice; treatment from 16 to 24 weeks)
"X203: mouse anti-mouse IL-11 IgG (IgG1κ), neutralising; VH SEQ ID NO:22, VL SEQ ID NO:23 (antibody, V domains shown, Enx203 VH; Enx203 VL) VH: EVQLQQSGPELVKPGASVKIPCKASGYTFTDYNMDWVKQSHGKSLEWIGDINPHNGGPIYNQKFTGKATLTVDKSSSTAYMELRSLTSEDTAVYYCARGELGHWYFDVWGTGTTVTVSS VL: DIVLTQSPASLAVSLGQRATISCRASKSVSTSGYSYIHWYQQKPGQPPKLLIYLASNLDSGVPARFSGSGSGTDFTLNIHPVEEEDAATYYCQHSRDLPPTFGGGTKLEIK",regained their body weight more quickly than those receiving IgG control,≤ 4 days,–,–,–,–,–,–,–,–,–,–,–,–,–
"X209: mouse anti-mouse IL-11Rα IgG (IgG1κ), neutralising; VH SEQ ID NO:24, VL SEQ ID NO:25 (antibody, V domains shown, Enx209 VH; Enx209 VL) VH: QVQLQQPGAELVRPGSSVKLSCKASGYTFTNYWMHWLKQRPVQGLEWIGNIGPSDSKTHYNQKFKDKATLTVDKSSSTAYMQLNSLTSEDSAVYYCARGDYVLFTYWGQGTLVTVSA VL: DIVLTQSPATLSLSPGERATLSCRASQSISNNLHWYQQKSHEAPRLLIKYASQSISGIPARFSGSGSGTDFTLSFSSLETEDFAVYFCQQSYSWPLTFGQGTKLEIK",–,–,good liver uptake,approximately 18 days,significant reduction in body weight,significantly lower,significantly reduced fat mass,significant improvement in glucose tolerance,increase in lean mass,significantly lower,significantly lower,remarkable protection against WDF-induced loss of pancreas,remarkably reduced,improved,remarkably reduced
